# Results published in the RNAGym collection of RNA variant scans (doi:10.1073/pnas.2313332121).
# B1: TPR t1 (parent)
# chain: GACCAAUCUGCCCUCAGAGCUCGAGAACAUCUUCGGAUGCAGAGGAGGCAGGCUUCGGUGGCGCGAUAGCGCCAACGUCCUCAACCUCCAAUGCAUCCCACCACAUGAUGAUGCCUGAAGAGCCUUGGUUUUUUG
# Variants of: B1
# Assay: polymerase ribozyme fitness, log enrichment relative to wild type (log ratio); higher = more active; in vitro selection for triplet polymerase activity
# Outline: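 PCR was used to build mutant libraries for each subunit of a heterodimeric triplet polymerase ribozyme, which were then transcribed. A single in vitro selection round, in triplicate, used a frozen incubation at −7 °C and recovered extended constructs by gel excision, streptavidin beads and RT-PCR. Fitness is the logarithm of genotype enrichment relative to wild-type enrichment, averaged over replicates with inverse-variance weights. The logarithm is base 2, and after Illumina sequencing only genotypes with ≥10 input reads and ≥1 read per output were kept.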
row,Variant,polymerase ribozyme fitness (log ratio)
1,C22G U38A U96C U112A A121U,-3.78
2,C22G C62G,-4.53
3,C22G C62A,-3.99
4,C22A G60A U96A U130C,-4.99
5,C22G G52U G63C G93A,-4.47
6,U21C A37G A46C C64G A100C C115U G117C,-7.24
7,U21C A29G A37U G71U,-1.56
8,C22A G61A A66C,-5.28
9,C22A C115G,-3.77
10,C22A C115U,-6.25
11,C22A C115A,-4.55
12,C22U A41U C73G C99U,-6.26
13,U21C A27G C56A C88A,-4.66
14,U21C G36U C64U,-0.911
15,C22G C53G C123G,-2.61
16,C22A U33C C49U C79A C123G,-7.05
17,C22A G44U C62U U112G,-5.2
18,C22U C70A,-4.49
19,U21G C64U,-2.06
20,C22A A66C G69U G93C,-5.35
21,C22G C49U G110C,-5.9
22,C22G C79A C94U G110U A119G U133A,-3.44
23,U21C C72U,-0.489
24,U21C C88G A121U,-0.0258

row,Variant,polymerase ribozyme fitness (log ratio)
1,C22G C104A C123A,-3.01
2,U21C G57U C72G,-2.29
3,U21C A24G A26G C53G G60U,-5.16
4,C22G G63U,-4.31
5,U21C A26G,-2.38
6,U21G C40U G47U G63U C98A G120C,-7.2
7,U21C C56A G69U C70U U96A A119G,-2.46
8,C22A C40U C49A C72U C123G,-5.79
9,C22G U55G G60U C62G U78C,-5.09
10,C22G G36A G47C A119U C124G,-3.6
11,U21G U87G U133G,-3.13
12,C22A C28U,-4.42
13,C22G A26C G110U,-6.02
14,C22U C62U,-4.34
15,U21G G47A,-0.934
16,C22A U67C C80A U96A U109A,-6.8
17,C22G G60C C104A A121U,-2.34
18,C22U C98U,-4.36
19,C22G G44C,-4.3
20,C22G G44U,-4.12
21,C22A C82U A90U U112A,-4.93
22,C22G A37U C104U U132A,-3.57
23,U21G C22A A27U A95U C123A,-5.39
24,U21G C88A C97A A121C,-5.55

row,Variant,polymerase ribozyme fitness (log ratio)
1,U21C C73A C89A,-2.96
2,C22G G23C A24C C89A C123A,-6.86
3,C22G C70A,-4.66
4,C22G G52U A111C,-3.81
5,C22G C104A,-5.33
6,C22U C53A C72U A95G C104A,-4.54
7,U21C G58C,-0.199
8,C22A C34U G36U G61C A111U,-6.58
9,C22G G63U U92G G110A,-5.8
10,U21G U55G U112A,1.42
11,C22G G61U,-2.12
12,C22G G61C,-3.76
13,C22U C73A,-3.74
14,U21G C97G U112G,-5.7
15,U21C C101U,-0.578
16,C22G A75U,-3.6
17,U21G C73A C94A,-2.37
18,U21G G61C,-3.98
19,C22G G36U,-4.91
20,U21C A29U C53G G61A C89U,-3.59
21,C22A G61U C102A G122A,-5.53
22,U21C G69A C104U,-2.28
23,C22A A111C A119U,-6.95
24,C22G C123A,-3.18

row,Variant,polymerase ribozyme fitness (log ratio)
1,C22G C123U,-2.66
2,C22A U78C,-6.19
3,U21G A105U G120A,-2.92
4,C22U G63A,-4.36
5,C22U G63C,-4.47
6,C22U G63U,-4.76
7,C22A G52A C124U,-4.37
8,U21C C56U,0.0213
9,C22U A90G,-4.43
10,C22U C73U U78A C89G U112A C124A,-6.98
11,U21G C123G U126G,0.0716
12,C22U C31G G63C C82A U87C U112A,-6.33
13,C22G C40A G69C G113A,-5.15
14,C22G A27C,-4.37
15,U21G C34A C49U C102G C114A,-8.62
16,C22G G69A C124A,-3.93
17,C22U A24G G47A U54A G57A G61A U81A,-6.51
18,C22A G23A G35A C82G C89U C104U A111U,-6.73
19,C22G G63C G69C U112A,-5.1
20,C22A A46C U131A,-4.88
21,C22U C89U,-3.61
22,C22U C89A,-4.83
23,U21C A27U,-4.9
24,U21C G48U C53A G117A,-1.81

row,Variant,polymerase ribozyme fitness (log ratio)
1,C22A U54C,-4.71
2,C22G A50G,-3.5
3,C22U C82A C101A,-4.64
4,C22G C56U C104A,-2.51
5,C22G G23A G52C,-3.57
6,U21C G42A,-1.45
7,C22A C79U U87A,-4.8
8,C22A A26G A83U,-3.1
9,C22U C86G A100C A121U,-4.27
10,U21C U54C G63C C80A A105C C115U A118C,-7.47
11,C22A C123A,-4.13
12,U21C A46G C53A G71C C98U,-6.73
13,C22U C114G C124A U125G,-5.84
14,C22U A37U G57A C115A,-4.73
15,C22U C72A C79A,-5.61
16,C22A C56A U112C,-2.01
17,C22G C28U A37U G48A G110C,-3.85
18,U21G G39C A41G C115A,-2
19,U21G A95C,-2.54
20,U21C G42A G52U C124A U125A,-1.88
21,C22G C31A U92C U96A A111U,-5.09
22,C22G C62G C104U G120A,-4.19
23,C22G A27C C56G G120C,-4.73
24,C22U C86G A100C A121U G135U,-4.77

row,Variant,polymerase ribozyme fitness (log ratio)
1,U21G C40U U87G,-1.55
2,C22G A50C G60U C115A,-2.18
3,U21C A121C,1.32
4,C22A G36U C88U C115A,-5.17
5,U21G A46G G48U A100C C102A,-5.54
6,C22G C56U C88U A91C,-4.75
7,C22G A118G A121U,-1.54
8,U21G G47C C85G G93C A100U C101U,-5.69
9,U21G G48U U59C A74U C114A,-2.3
10,C22G U87G G113U A119G G127C,-4.58
11,C22A C124A U134C,-4.93
12,C22U G71A U78A,-4.62
13,C22U G63U C82U C124G U126A,-3.87
14,C22A C40U C73U U112A U129C,-4.96
15,C22U G61C,-4.87
16,U21G G51U G69C A103U A111U G122U,-7.01
17,U21C G35A U130A,-4.76
18,C22U G52C,-4.83
19,C22U C72U,-3.69
20,C22G C86A,-3.83
21,C22A A119G,-3.88
22,U21G G52A C102A C124U,-2.14
23,C22G A24U U30C A46G G48U G60C G110U,-6.93
24,C22G A37U U87G,-3.6

row,Variant,polymerase ribozyme fitness (log ratio)
1,C22A G60U,-4.21
2,C22A G60A,-4.26
3,C22G C56U,-3.32
4,C22G C98U,-4.52
5,C22G G63U C88G,-5.64
6,C22G C31U G51C U81A G93A C123U,-6.15
7,C22U C56U,-3.77
8,C22A A37U A43C C114A A118G,-6.5
9,C22U G45A C89U A121C C124G U125A,-5.69
10,U21C C49A A84U C88G C101G U133A,-2
11,C22G C53U G57C U78C C104A C124G,-1.59
12,C22G A41U C88G U116G A121G,-4.87
13,C22A G60C U87A,-5.83
14,C22A C82G U112G,-5.26
15,C22A A84U,-5.54
16,C22U C40G,-4.26
17,C22G G63C C80A,-5.79
18,U21G A46C C86U,-2.16
19,C22G G45A U54A A95C C114U,-5.19
20,C22A G120A,-4.53
21,U21C G39A U54A U78A C98U G110U,-6.3
22,U21C G45A U59A G61A,-1.1
23,U21C C49A U78G C123A,-1.05
